Data set [1] can be described thus: IP and acetylation immunoblot.
The nature of data set [2]: Gli2 level in primary GNPs. As to conditions: glycan lost; control: untreated GNPs.
The nature of data set [3]: Bcl2 promoter luciferase, HEK293T. Conditions: WT Gli2.
Data set [4] is described as follows: IP immunoblot from P30 cerebellum. Conditions: glycan lost; control: SmoM2Atoh1 mice.

B1: Gli2 (GLI family zinc finger 2): OSMI-1 (protein)
parent chain: METSAPAPALEKKEAKSGLLEDSSFPDPGKKACPLAVAAAVAAHGVPQQLLPAFHAPLPIDMRHQEGRYHYDPHSVHSVHGPPTLSGSPVISDISLIRLSPHPAGPGESPFSAHHPYVNPHMEHYLRSVHSSPTLSMISAARGLSPADVAHEHLKERGLFSLAAPGTNPSDYYHQMTLMASHPTPYGDLLMQSGGAASAPHLHDYLNPVDASRFSSPRVTPRLSRKRALSISPLSDASLDLQRMIRTSPNSLVAYINNSRSSSAASGSYGHLSAGALSPAFTFPHPINPVAYQQILSQQRGLGSAFGHTPPLIQPSPTFLAQQPMTLTSISTMPTQLSSSSSNCLNDANQNKQNSESAVSSTVNPITIHKRSKVKTEAEGLRPASPLGLTQEQLADLKEDLDRDDCKQEAEVVIYETNCHWADCTKEYDTQEQLVHHINNEHIHGEKKEFVCRWQACTREQKPFKAQYMLVVHMRRHTGEKPHKCTFEGCSKAYSRLENLKTHLRSHTGEKPYVCEHEGCNKAFSNASDRAKHQNRTHSNEKPYICKIPGCTKRYTDPSSLRKHVKTVHGPDAHVTKKQRNDVHVRAPLLKENGDNEASAEPGGRGPEESVEASSTSHTVEDCLHIKAIKTESSGLCQSSPGAQSSCSSEPSPLGSAPNNDSGMEMPGTGPGSLGDLTALADTCPGADTSALAAPSTGGLQLRKHMSTVHRFEQLKREKLKSLKDSCSWAGPAPHTRNTKLPPLPVNGSVLENFNNTGGGGPAGLLPSQRLPELTEVTMLSQLQERRDSSTSTMSSAYTVSRRSSGISPYFSSRRSSEASPLGGLRPHNASSADSYDPISTDASRRSSEASQCSGGGPGLLNLTPAQQYNLRAKYAAATGGPPPTPLPGLDRVSLRTRLALLDAPERALPGACPHPLGPRRGSDGPTYSHGHGHGYAGAAPAFPHEGPNSSTRRASDPVRRPDPLILPRVQRFHSTHNMNPGSLPPCADRRGLHVQSHPSVDSNLTRNAYSPRPPSINENVVMEAVAAGVDGPGLECDLGLVEDELVLPDDVVQYIKAHTGGTLDDGIRQGYPTEGTGFPENSKLPSPGLQGHRRLAAADSNMGPSAPGLGGCQLSYSPSSNLNKSNMPVQWNEVSSGTVDALPTQVKPPPFPHSNLAVVQQKPAFGQYPGYNPQSVQSSSGGLDSTQPHLQLRGAPSASRGSYTQQPRQPAAGSQCLGMSAAMSPQASYSQAHPQLSPNIVSGSLNQFSPSCSNMAAKPSHLGLPQQMEVVPNATIMNGHQREHGVPNSSLAAVSQPHPVLSYPQQDSYQQGSNLLSSHQPGFMESQQNAGFGLMQPRPPLEPNTASRHRGVRSGQQQLYARTTGQAMVTSANQETAEAMPKGPAGTMVSLAPQPSQDTGRAQDQNTLYYYGQIHMYEQNGGCPAVQPQPPQPQACSDSIQPEPLPSPGVNQVSSTVDSQLLEPPQIDFDAIMDDGDHSSLFSGALSPTLLHNLSQNSSRLTTPRNSLTLPSIPAGISNMAVGDMSSMLTSLAEESKFLNMMT
In the case of B1, the “other: Gli2 acetylation” value in data set [1] (glycan lost, control: untreated, WT Gli2) was “increases”. In data set [2], the expression_or_secretion result is listed as “decreases”. For the same protein, the “other: transcriptional activity” value in data set [3] (glycan lost, control: DMSO) is “decreases”.

B2: Gli2 (GLI family zinc finger 2): SmoM2Atoh1;OGTAtoh1 (OGT knockout in GNPs) (protein)
parent chain: B1 parent chain
Regarding B2, the “other: Gli2 acetylation” value in data set [4] was “increases”.

B3: Gli2 (GLI family zinc finger 2): OGT overexpression (protein)
parent chain: B1 parent chain
Take B3: in data set [1] (glycan gained, control: without OGT overexpression), the “other: Gli2 acetylation” value was “decreases”. In addition, in data set [3] (glycan gained, control: pEGFP-C1 vector), the “other: transcriptional activity” value is “increases”.

The record behind these values is article PMC9407465.
